Publication PMC314469, “Protein Interaction Networks by Proteome Peptide Scanning” (PLoS Biology, 2004)
One block for each binder: values may come before it.

Tests used:
Assay in all cases: SPOT array
[1] = target: T1, Boi1 SH3 (BOI1_YEAST), P38041
T1 chain: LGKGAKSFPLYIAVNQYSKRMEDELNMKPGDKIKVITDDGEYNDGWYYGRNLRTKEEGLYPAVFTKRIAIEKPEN

[2] = target: T2, Boi2 SH3 (BOI2_YEAST), P39969
T2 chain: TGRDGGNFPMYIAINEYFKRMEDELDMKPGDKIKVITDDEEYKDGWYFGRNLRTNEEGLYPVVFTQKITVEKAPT

[3] = target: T3, Myo5 SH3 (MYO5_YEAST), Q04439
T3 chain: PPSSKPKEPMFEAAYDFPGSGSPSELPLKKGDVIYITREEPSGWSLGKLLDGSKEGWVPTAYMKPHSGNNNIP

[4] = target: T4, Rvs167 SH3 (RV167_YEAST), P39743
T4 chain: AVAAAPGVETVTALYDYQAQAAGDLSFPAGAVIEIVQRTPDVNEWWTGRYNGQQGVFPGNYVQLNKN

[5] = target: Sho1 SH3 (SHO1_YEAST), P40073
[6] = target: T5, Yfr024 SH3 (LSB3_YEAST), P43603
T5 chain: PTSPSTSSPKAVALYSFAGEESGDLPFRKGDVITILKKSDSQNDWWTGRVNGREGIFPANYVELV

[7] = target: T6, Yhr016c SH3 (YSC84_YEAST), P32793
T6 chain: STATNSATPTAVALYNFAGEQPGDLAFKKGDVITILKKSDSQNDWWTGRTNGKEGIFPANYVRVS

Sequence of Sho1 SH3 (SHO1_YEAST), P40073 (P40073 295-366): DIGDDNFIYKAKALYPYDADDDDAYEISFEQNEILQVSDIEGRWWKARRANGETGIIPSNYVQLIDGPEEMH

normalised SPOT signal, Boehringer light units (BLU); mean over the file's lines of this peptide [1]: 45.3
normalised SPOT signal, Boehringer light units (BLU); mean over the file's lines of this peptide [2]: 17.8
normalised SPOT signal, Boehringer light units (BLU); mean over the file's lines of this peptide [3]: 62.9
normalised SPOT signal, Boehringer light units (BLU); mean over the file's lines of this peptide [4]: 56.5
normalised SPOT signal, Boehringer light units (BLU); mean over the file's lines of this peptide [5]: 37.7
normalised SPOT signal, Boehringer light units (BLU); mean over the file's lines of this peptide [6]: 6.6
normalised SPOT signal, Boehringer light units (BLU); mean over the file's lines of this peptide [7]: 28.7
Binder: QTGSKTVPQAPQAP [YLR095C 762-775]

normalised SPOT signal, Boehringer light units (BLU); mean over the file's lines of this peptide [1]: 11
normalised SPOT signal, Boehringer light units (BLU); mean over the file's lines of this peptide [2]: 3.6
normalised SPOT signal, Boehringer light units (BLU); mean over the file's lines of this peptide [3]: 153
normalised SPOT signal, Boehringer light units (BLU); mean over the file's lines of this peptide [4]: 22.8
normalised SPOT signal, Boehringer light units (BLU); mean over the file's lines of this peptide [5]: 31.6
normalised SPOT signal, Boehringer light units (BLU); mean over the file's lines of this peptide [6]: 9.3
normalised SPOT signal, Boehringer light units (BLU); mean over the file's lines of this peptide [7]: 5.4
Binder: QVYEKTIPLFPPEI [YDR416W 606-619]

normalised SPOT signal, Boehringer light units (BLU); mean over the file's lines of this peptide [1]: 123
normalised SPOT signal, Boehringer light units (BLU); mean over the file's lines of this peptide [2]: 145
normalised SPOT signal, Boehringer light units (BLU); mean over the file's lines of this peptide [3]: 296
normalised SPOT signal, Boehringer light units (BLU); mean over the file's lines of this peptide [4]: 140
normalised SPOT signal, Boehringer light units (BLU); mean over the file's lines of this peptide [5]: 230
normalised SPOT signal, Boehringer light units (BLU); mean over the file's lines of this peptide [6]: 1820
normalised SPOT signal, Boehringer light units (BLU); mean over the file's lines of this peptide [7]: 109
Binder: QWSKRIMPYIPGPV [YBR200W 345-358]

normalised SPOT signal, Boehringer light units (BLU); mean over the file's lines of this peptide [1]: 705
normalised SPOT signal, Boehringer light units (BLU); mean over the file's lines of this peptide [2]: 18.7
normalised SPOT signal, Boehringer light units (BLU); mean over the file's lines of this peptide [3]: 274
normalised SPOT signal, Boehringer light units (BLU); mean over the file's lines of this peptide [4]: 77.6
normalised SPOT signal, Boehringer light units (BLU); mean over the file's lines of this peptide [5]: 135
normalised SPOT signal, Boehringer light units (BLU); mean over the file's lines of this peptide [6]: 212
normalised SPOT signal, Boehringer light units (BLU); mean over the file's lines of this peptide [7]: 31.9
Binder: RAGNREPPSTPSTL [YBR079C 874-887]

normalised SPOT signal, Boehringer light units (BLU); mean over the file's lines of this peptide [1]: 37.4
normalised SPOT signal, Boehringer light units (BLU); mean over the file's lines of this peptide [2]: 122
normalised SPOT signal, Boehringer light units (BLU); mean over the file's lines of this peptide [3]: 208
normalised SPOT signal, Boehringer light units (BLU); mean over the file's lines of this peptide [4]: 89
normalised SPOT signal, Boehringer light units (BLU); mean over the file's lines of this peptide [5]: 44.4
normalised SPOT signal, Boehringer light units (BLU); mean over the file's lines of this peptide [6]: 178
normalised SPOT signal, Boehringer light units (BLU); mean over the file's lines of this peptide [7]: 42.2
Binder: QSINRSIPSAPYGA [YBL081W 84-97]

normalised SPOT signal, Boehringer light units (BLU); mean over the file's lines of this peptide [1]: 104
normalised SPOT signal, Boehringer light units (BLU); mean over the file's lines of this peptide [2]: 12
normalised SPOT signal, Boehringer light units (BLU); mean over the file's lines of this peptide [3]: 218
normalised SPOT signal, Boehringer light units (BLU); mean over the file's lines of this peptide [4]: 52
normalised SPOT signal, Boehringer light units (BLU); mean over the file's lines of this peptide [5]: 37.3
normalised SPOT signal, Boehringer light units (BLU); mean over the file's lines of this peptide [6]: 105
normalised SPOT signal, Boehringer light units (BLU); mean over the file's lines of this peptide [7]: 19.3
Binder: QRLDRDKPHEPNGY [YDL076C 274-287]

More lines, now with the values behind:

Binder: QSEEKEKPKGPMAV [YIL122W 8-21]
normalised SPOT signal, Boehringer light units (BLU); mean over the file's lines of this peptide [1]: 88.1
normalised SPOT signal, Boehringer light units (BLU); mean over the file's lines of this peptide [2]: 16.6
normalised SPOT signal, Boehringer light units (BLU); mean over the file's lines of this peptide [3]: 197
normalised SPOT signal, Boehringer light units (BLU); mean over the file's lines of this peptide [4]: 20.6
normalised SPOT signal, Boehringer light units (BLU); mean over the file's lines of this peptide [5]: 36.1
normalised SPOT signal, Boehringer light units (BLU); mean over the file's lines of this peptide [6]: 109
normalised SPOT signal, Boehringer light units (BLU); mean over the file's lines of this peptide [7]: 18.1

Binder: QSKTKPLPVEPASP [YCR030C 484-497]
normalised SPOT signal, Boehringer light units (BLU); mean over the file's lines of this peptide [1]: 80.3
normalised SPOT signal, Boehringer light units (BLU); mean over the file's lines of this peptide [2]: 5.9
normalised SPOT signal, Boehringer light units (BLU); mean over the file's lines of this peptide [3]: 122
normalised SPOT signal, Boehringer light units (BLU); mean over the file's lines of this peptide [4]: 90.1
normalised SPOT signal, Boehringer light units (BLU); mean over the file's lines of this peptide [5]: 9780
normalised SPOT signal, Boehringer light units (BLU); mean over the file's lines of this peptide [6]: 64.3
normalised SPOT signal, Boehringer light units (BLU); mean over the file's lines of this peptide [7]: 65.4

Binder: QTVIKTHPRIPKSE [YMR211W 94-107]
normalised SPOT signal, Boehringer light units (BLU); mean over the file's lines of this peptide [1]: 213
normalised SPOT signal, Boehringer light units (BLU); mean over the file's lines of this peptide [2]: 17.1
normalised SPOT signal, Boehringer light units (BLU); mean over the file's lines of this peptide [3]: 186
normalised SPOT signal, Boehringer light units (BLU); mean over the file's lines of this peptide [4]: 9.1
normalised SPOT signal, Boehringer light units (BLU); mean over the file's lines of this peptide [5]: 67
normalised SPOT signal, Boehringer light units (BLU); mean over the file's lines of this peptide [6]: 134
normalised SPOT signal, Boehringer light units (BLU); mean over the file's lines of this peptide [7]: 63.7

Binder: QPPDRNLPSHPSSN [YGR143W 154-167]
normalised SPOT signal, Boehringer light units (BLU); mean over the file's lines of this peptide [1]: 19.4
normalised SPOT signal, Boehringer light units (BLU); mean over the file's lines of this peptide [2]: 13.7
normalised SPOT signal, Boehringer light units (BLU); mean over the file's lines of this peptide [3]: 156
normalised SPOT signal, Boehringer light units (BLU); mean over the file's lines of this peptide [4]: 48.2
normalised SPOT signal, Boehringer light units (BLU); mean over the file's lines of this peptide [5]: 78.5
normalised SPOT signal, Boehringer light units (BLU); mean over the file's lines of this peptide [6]: 48.8
normalised SPOT signal, Boehringer light units (BLU); mean over the file's lines of this peptide [7]: 19.4

Binder: RDDVKRTPFIPESV [YPL093W 369-382]
normalised SPOT signal, Boehringer light units (BLU); mean over the file's lines of this peptide [1]: 0
normalised SPOT signal, Boehringer light units (BLU); mean over the file's lines of this peptide [2]: 0
normalised SPOT signal, Boehringer light units (BLU); mean over the file's lines of this peptide [3]: 171
normalised SPOT signal, Boehringer light units (BLU); mean over the file's lines of this peptide [4]: 86.7
normalised SPOT signal, Boehringer light units (BLU); mean over the file's lines of this peptide [5]: 45.2
normalised SPOT signal, Boehringer light units (BLU); mean over the file's lines of this peptide [6]: 92
normalised SPOT signal, Boehringer light units (BLU); mean over the file's lines of this peptide [7]: 0

Binder: QNGLRFNPDVPKLW [YDR449C 169-182]
normalised SPOT signal, Boehringer light units (BLU); mean over the file's lines of this peptide [1]: 64.6
normalised SPOT signal, Boehringer light units (BLU); mean over the file's lines of this peptide [2]: 0
normalised SPOT signal, Boehringer light units (BLU); mean over the file's lines of this peptide [3]: 260
normalised SPOT signal, Boehringer light units (BLU); mean over the file's lines of this peptide [4]: 22.1
normalised SPOT signal, Boehringer light units (BLU); mean over the file's lines of this peptide [5]: 37.6
normalised SPOT signal, Boehringer light units (BLU); mean over the file's lines of this peptide [6]: 86.7
normalised SPOT signal, Boehringer light units (BLU); mean over the file's lines of this peptide [7]: 8.3

Binder: REGPKSSPRGPLSP [YPR107C 40-53]
normalised SPOT signal, Boehringer light units (BLU); mean over the file's lines of this peptide [1]: 3920
normalised SPOT signal, Boehringer light units (BLU); mean over the file's lines of this peptide [2]: 11.9
normalised SPOT signal, Boehringer light units (BLU); mean over the file's lines of this peptide [3]: 188
normalised SPOT signal, Boehringer light units (BLU); mean over the file's lines of this peptide [4]: 30.2
normalised SPOT signal, Boehringer light units (BLU); mean over the file's lines of this peptide [5]: 27.8
normalised SPOT signal, Boehringer light units (BLU); mean over the file's lines of this peptide [6]: 184
normalised SPOT signal, Boehringer light units (BLU); mean over the file's lines of this peptide [7]: 36.3
